Patent publication US10119980B2, “Method for detection of basic peptide and reagent for detection of basic peptide” (SYSMEX CORPORATION, priority 2009, dated 2018)
Ends that are not written are not given here.

Assays:
heat-denatured BSA = target: T1, heat-denatured BSA (Bos taurus, UniProt P02769); test: Turbidity (OD550) measurement and Hill plot analysis of peptides mixed with heat-denatured BSA reagent; assay type: binding, bovine; details: for change in OD550 with increasing peptide concentration: peptide mixed with heat-denatured BSA, final 0.2 w/v %; for Hill coefficient n: Example 5, peptide 0 to 80 μM
T1 construct: purchased Sigma-Aldrich
Method: A partial dynorphin A peptide consisting of amino acids of positions 1 to 13 of dynorphin A (SEQ ID NO: 2; Peptide Institute, Inc.) was used as the basic peptide of interest. A neutral peptide, α-endorphin (SEQ ID NO: 3; Peptide Institute, Inc.) was also used as a comparative peptide of interest. These peptides were dissolved in ultrapure water to prepare samples containing respective peptides (1.0 mg/ml).
(§1) The denatured BSA solution prepared in the above (1) (50 μl) was mixed with the respective samples prepared in (2) followed by addition of ultrapure water to prepare a total volume of 250 μl of mixed solutions containing respective peptides. In the preparation, the sample was mixed so as to obtain a final concentration of the respective peptides in the mixed solutions of 0 to 150 μM.
The thus-prepared mixed solutions were measured for OD550 in the similar manner as Example 1.
A fragment of kininogen (positions 439 to 457 (SEQ ID NO: 4); synthesized at Biologica Co.) and a fragment of ITIH4 (positions 611 to 642 (SEQ ID NO: 5); synthesized at Biologica Co.) which were known as cancer metastasis markers were used as basic peptides of interest. These peptides were dissolved in ultrapure water to prepare samples containing respective peptides (1.0 mg/ml).
as §1, with “80” for “150”
The thus-prepared mixed solutions were measured for OD550 in the similar manner as Example 1. The Kd value and Hill coefficient were calculated for the respective samples.
Besides a basic peptide, to be studied for comparison, a neutral peptide Fibrinogen α (SEQ ID NO: 6; Biological Co.) and acidic peptides C3f (SEQ ID NO: 7; Biologica Co.) and Factor XIII (SEQ ID NO: 8; Biologica Co.) were prepared. These peptides were dissolved in ultrapure water to prepare samples containing respective peptides (1.0 mg/ml).
as §1, with “solutions containing the respective peptides.” for “solutions containing respective peptides.”, “was mixed with the heat-denatured BSA solution so as” for “was mixed so as”, “0 to 80 μM.” for “0 to 150 μM.”

[1] = target: T2, partial ACTH peptide (positions 1 to 24 of ACTH) (Homo sapiens, UniProt P01189); test: Turbidity (OD550) measurement and Hill plot analysis of albumin reagents mixed with partial ACTH peptide; assay type: binding; details: for change in OD550 with increasing partial ACTH peptide concentration: albumin reagent mixed with partial ACTH peptide
T2 construct: consisting of the amino acids of positions 1 to 24 of ACTH
Method: BSA (Sigma-Aldrich) was dissolved in Milli-Q® water (Millipore) to prepare a BSA solution (1.0 w/v %). The BSA solution was divided into two and one was designated as a non-denatured BSA solution and the other was autoclaved at 110° C. for 15 minutes to obtain a heat-denatured BSA solution.
A partial ACTH peptide (Peptide Institute, Inc.) consisting of the amino acids of positions 1 to 24 of ACTH was used as the basic peptide of interest. The peptide was dissolved in ultrapure water to prepare a sample containing the basic peptide of interest (1.0 mg/ml).
The heat-denatured BSA solution prepared in the above (1) (50 μl) was mixed with the sample prepared in (2) followed by addition of ultrapure water to prepare a total volume of 250 μl of a mixed solution (final concentration of heat-denatured BSA: 0.2 w/v %). In this preparation, the sample was mixed so as to obtain a final concentration of the partial ACTH peptide in the mixed solution of 0 to 150 μM. A comparative mixed solution was also prepared in the similar manner except that the non-denatured BSA solution was used instead of the heat-denatured BSA solution.
The thus-prepared mixed solutions were measured for absorbance at the wavelength of 550 nm (OD550) in a spectrophotometer UV-2500PC (Shimadzu Corporation). The obtained results were subjected to Hill plot analysis with KaleidaGraph (HULINKS, Inc.) to calculate the values of Kd and the Hill coefficient of heat-denatured BSA and non-denatured BSA.
BSA (Sigma-Aldrich) was dissolved in Milli-Q® water (Millipore) to prepare a BSA solution (1.0 w/v %). The BSA solution was divided into five aliquots among which one was designated as a non-denatured BSA solution (heat denaturation period: 0 min) and the rest of four were heated in an autoclave at 110° C. for 5, 15, 60 and 120 min, respectively, to obtain heat-denatured BSA solutions.
The Kd value and Hill coefficient of BSA at respective heat denaturation periods were calculated. […]
The Kd value and Hill coefficient were calculated for the mixed solutions. […]

[2] = Example 1, final BSA 0.2 w/v %, peptide 0 to 150 μM, OD550 Hill plot
[3] = Example 6, albumin autoclaved at 115° C. for 15 minutes, final 0.2 w/v %, peptide 0 to 80 μM

T1 sequence (P02769 25-607): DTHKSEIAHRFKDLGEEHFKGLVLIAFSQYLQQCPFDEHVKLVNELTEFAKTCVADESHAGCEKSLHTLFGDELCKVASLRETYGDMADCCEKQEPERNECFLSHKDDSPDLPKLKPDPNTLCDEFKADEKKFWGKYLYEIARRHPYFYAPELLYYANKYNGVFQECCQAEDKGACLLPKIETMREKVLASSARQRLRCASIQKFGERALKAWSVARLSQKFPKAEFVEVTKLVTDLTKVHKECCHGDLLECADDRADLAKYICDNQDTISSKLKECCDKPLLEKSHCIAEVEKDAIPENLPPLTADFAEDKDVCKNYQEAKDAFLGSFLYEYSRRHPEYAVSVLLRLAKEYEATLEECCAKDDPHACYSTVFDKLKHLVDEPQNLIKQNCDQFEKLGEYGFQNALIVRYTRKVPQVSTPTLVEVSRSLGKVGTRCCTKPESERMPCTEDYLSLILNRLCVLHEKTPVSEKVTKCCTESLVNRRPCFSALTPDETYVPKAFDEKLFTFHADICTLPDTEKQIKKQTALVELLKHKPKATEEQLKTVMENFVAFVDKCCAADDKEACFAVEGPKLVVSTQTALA
T2 sequence (P01189 138-161): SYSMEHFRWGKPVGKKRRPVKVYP

## C3f: acidic peptide C3f (SEQ ID NO: 7) (HWESASLL; listed as Homo sapiens)
heat-denatured BSA
  change in OD550 with increasing peptide concentration: no change in OD550

## Fibrinogen α: neutral peptide Fibrinogen α (SEQ ID NO: 6) (DEAGSEADHEGTHSTKRGHAKSRPV; listed as Homo sapiens)
heat-denatured BSA
  change in OD550 with increasing peptide concentration: no change in OD550

## GESRNRNVHSGSTFFKYYLQGAKIPKPEASFS [ITIH4 (611-642)]
heat-denatured BSA; OD550 Hill plot
  Hill coefficient n: 9
heat-denatured BSA
  change in OD550 with increasing peptide concentration: increased in a peptide concentration dependent manner

## Non-denatured BSA: BSA (Sigma-Aldrich) solution 1.0 w/v %, not heated; comparative reagent [reference compound]
[1]; [2]
  Hill coefficient n: 1
  Kd: 290 µM
[1]
  change in OD550 with increasing partial ACTH peptide concentration: significant change in the value of OD550 was not observed
[1]; listed as BSA solution that was heat-denatured for 0 min
  change in OD550 with increasing partial ACTH peptide concentration: not changed
[1]; heat denaturation period 0 min
  Hill coefficient n: 1
  Kd: 290 µM

## HNLGHGHKHERDQGHGHQR [Kininogen (439-457)]
heat-denatured BSA; OD550 Hill plot
  Hill coefficient n: 8
heat-denatured BSA
  change in OD550 with increasing peptide concentration: increased

## α-endorphin (YGGFMTSEKSQTPLVT; listed as Homo sapiens)
heat-denatured BSA
  change in OD550 with increasing peptide concentration: no change in OD550

## CC[C@H](C)[C@H](NC(=O)[C@H](CCCNC(=N)N)NC(=O)[C@H](CCCNC(=N)N)NC(=O)[C@H](CC(C)C)NC(=O)[C@H](Cc1ccccc1)NC(=O)CNC(=O)CNC(=O)[C@@H](N)Cc1ccc(O)cc1)C(=O)N[C@@H](CCCNC(=N)N)C(=O)N1CCC[C@H]1C(=O)N[C@@H](CCCCN)C(=O)N[C@@H](CC(C)C)C(=O)N[C@@H](CCCCN)C(=O)O [partial dynorphin A peptide]
heat-denatured BSA
  Kd: 30 µM
  change in OD550 with increasing peptide concentration: increased in a concentration dependent manner
heat-denatured BSA; Example 4, peptide 0 to 150 μM, OD550 Hill plot
  Hill coefficient: 8

## Factor XIII: acidic peptide Factor XIII (SEQ ID NO: 8) (AVPPNNSNAAEDDLPTVELQGVVPR; listed as Homo sapiens)
heat-denatured BSA
  change in OD550 with increasing peptide concentration: no change in OD550

B1: Heat-denatured OA: ovoalbumin solution (1.0 w/v %), pH 5 to 7, autoclaved at 115° C. for 15 minutes (protein)
chain: GSIGAASMEFCFDVFKELKVHHANENIFYCPIAIMSALAMVYLGAKDSTRTQINKVVRFDKLPGFGDSIEAQCGTSVNVHSSLRDILNQITKPNDVYSFSLASRLYAEERYPILPEYLQCVKELYRGGLEPINFQTAADQARELINSWVESQTNGIIRNVLQPSSVDSQTAMVLVNAIVFKGLWEKAFKDEDTQAMPFRVTEQESKPVQMMYQIGLFRVASMASEKMKILELPFASGTMSMLVLLPDEVSGLEQLESIINFEKLTEWTSSNVMEERKIKVYLPRMKMEEKYNLTSVLMAMGITDVFSSSANLSGISSAESLKISQAVHAAHAEINEAGREVVGSAEAGVDAASVSEEFRADHPFLFCIKHIATNAVLFFGRCVSP
[1]; [3]
  Hill coefficient n: 3
  Kd: 67 µM
[1]; Example 6, albumin autoclaved at 115° C. for 15 minutes, final 0.2 w/v %, peptide 0 to 80 μM, listed as heat-denatured OA
  Hill coefficient n: 11
[1]
  change in OD550 with increasing partial ACTH peptide concentration: increase in a manner dependent on the concentrations of the basic peptide
